Results: publication PMC9415858
Values joined by “and” are separate entries in the source; they are usually repeats but may differ in a detail not shown here. Equal values may be shown once.

Target: His-Tagged FcRn (UniProt P55899)
Assay: SPR; His-tagged FcRn captured on an anti-His IgG1 antibody CM5 chip; antibody samples as analyte at 15, 5 and 1.66 nM in HBS-EP pH 6.0, 30 µL/min, 22 °C; steady-state model (the same data also fitted with a two-state model); mean of at least 5 measurements

UniProt P55899, sequence (P55899 24-297): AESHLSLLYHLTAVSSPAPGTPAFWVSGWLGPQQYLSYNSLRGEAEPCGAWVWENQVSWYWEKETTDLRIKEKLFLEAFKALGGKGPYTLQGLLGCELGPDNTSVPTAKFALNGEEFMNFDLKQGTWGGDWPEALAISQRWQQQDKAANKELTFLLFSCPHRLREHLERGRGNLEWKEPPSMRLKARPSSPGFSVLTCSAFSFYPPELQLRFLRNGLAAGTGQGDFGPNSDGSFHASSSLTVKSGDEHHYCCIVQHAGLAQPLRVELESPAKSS

Kd: 25 nM and 22.7 nM
Substance: Avastin (unfractionated innovator product) (antibody)
